Experimental data from patent US20200353067A1.

Target: CX3CR1 (fractalkine receptor) (human) (UniProt P49238)
Assay: cell-based or functional assay

UniProt P49238, sequence (P49238 whole entry): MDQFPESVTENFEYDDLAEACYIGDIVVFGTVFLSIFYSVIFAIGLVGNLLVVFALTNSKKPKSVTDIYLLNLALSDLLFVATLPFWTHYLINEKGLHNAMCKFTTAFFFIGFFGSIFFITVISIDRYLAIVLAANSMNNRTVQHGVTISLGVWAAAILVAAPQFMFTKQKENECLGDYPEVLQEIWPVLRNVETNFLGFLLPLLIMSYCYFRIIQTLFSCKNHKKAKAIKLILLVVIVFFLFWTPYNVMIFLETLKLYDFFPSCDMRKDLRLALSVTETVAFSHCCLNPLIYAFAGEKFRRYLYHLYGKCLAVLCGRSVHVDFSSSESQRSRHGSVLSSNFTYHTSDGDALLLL

## RSV A2 strain G-protein (surface attachment glycoprotein) (from UniProt P03423 1-298) (ligand)
  viral load: 2.3 fold
